Publication PMC9304170, “Chloromethyl Glycosides as Versatile Synthons to Prepare Glycosyloxymethyl‐Prodrugs” (Chemistry (Weinheim an Der Bergstrasse, Germany), 2022)
Values joined by “and” are separate entries in the source; they are usually repeats but may differ in a detail not shown here. Equal entries are not always repeated.

What was measured:
[1] = biological target: T1, Agrobacterium Sp. β-glucosidase (Abg, GH1 family) (Agrobacterium sp., UniProt P12614); test: Michaelis-Menten kinetics of enzymatic hydrolysis, release of 4-nitrophenol (absorbance at 405 nm); assay type: biochemical; details: transglycosylation suggested for rate enhancement
T1 sequence (P12614 1-459): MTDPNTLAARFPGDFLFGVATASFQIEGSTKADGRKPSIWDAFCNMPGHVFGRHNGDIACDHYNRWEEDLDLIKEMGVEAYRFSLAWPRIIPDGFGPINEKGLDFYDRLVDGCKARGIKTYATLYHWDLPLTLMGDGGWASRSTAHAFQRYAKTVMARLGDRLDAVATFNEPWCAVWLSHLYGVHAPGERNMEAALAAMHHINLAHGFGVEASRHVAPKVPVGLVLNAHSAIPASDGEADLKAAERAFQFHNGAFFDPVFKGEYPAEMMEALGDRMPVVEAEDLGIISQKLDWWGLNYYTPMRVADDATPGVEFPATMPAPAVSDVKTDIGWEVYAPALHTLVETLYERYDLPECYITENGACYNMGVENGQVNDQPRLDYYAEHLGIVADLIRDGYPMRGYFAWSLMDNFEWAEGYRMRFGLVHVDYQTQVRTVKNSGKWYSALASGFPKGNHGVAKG
Protocol: (§1) Enzymatic reactions were performed in triplo at pH 6.8 (50 mM final concentration) containing 0.1 % bovine serum albumin at 37 °C.[25] Aliquots of 100 μL were taken at constant time periods and added to 100 μL aq. NaOH (0.1 M) in a 96‐well microtitre plate to quench the enzymatic reaction and ensure maximal absorption of sodium 4‐nitrophenolate as outlined in previous studies.[28] The initial rate (vo) was determined normalized on the ∼0.1 U/mL enzyme concentration and plotted against substrate concentration [S]. Non‐linear regression analysis based on 7–10 concentrations depending on the glycoside, was used to determine the Km and k cat values. k cat values were normalized based on the enzyme concentration. […]
(§2) Kinetic evaluation of 4- nitrophenyloxymethyl glycosides. Enzyme reactions were performed in triplicate. Substrate samples (final volume of 1 mL) were prepared by diluting carefully prepared substrate stock solutions with sodium phosphate buffer pH 6.8 (50 mM final concentration) containing 0.1% bovine serum albumin and milliQ to the desired concentration. The samples were equilibrated at 37 °C for at least 5 minutes before the enzyme in 50 mM buffer (2 U per ml, 50 uL) was added. Aliquots of 100 µL were taken at constant time periods and added to 100 µL aq. NaOH (0.1 M) in a 96 well microtiter plate to quench the enzymatic reaction. The absorbance was measured at 405 nm using a Tecan Spark M10 plate reader.
(§3) Negative assay controls contained no substrate or no enzyme. Rates of the enzymatic reactions were determined at 7 different substrate concentrations from 0.02 – 1.0 mM. Km and kcat values were determined by nonlinear regression analysis using Graphpad 5.0 (GraphPad Software, San Diego, California USA, www.graphpad.com) for fitting the data. Calibration samples at varying concentration (0.05 – 0.5 mM) were prepared similar to the substrate samples in the enzyme reactions by diluting a carefully prepared 4-nitrophenol stock solution with sodium phosphate buffer pH 6.8 (50 mM final concentration) containing 0.1% bovine serum albumin and milliQ to the desired concentration. […]
(§4) (T1 determined as 9.13 sec.) was used. Dynamic measurements were started by heating the sample in the NMR to 37 °C and recording a t0-spectrum. Subsequently Abg (V = 2.05 uL, 0.82 U, 1.64 U/mL) was added to the sample outside of the NMR. The sample was mixed by shaking and quickly reintroduced to the NMR.
(§5) The time of enzyme addition was recorded as t0. Spectra were recorded over an appropriate time- scale with the relaxation delay at 3*T1 of the internal standard.
(§6) In vivo experiments were performed at the company Charles Rivers (Den Bosch, The Netherlands) in accordance with Dutch law of animal experiments and under approval of the central committee of animal experiments (CCD). Relative and absolute bioavailability may be determined in different animal models and according to different protocols.
(§7) The following protocol is typical for determining bioavailability in female Beagle dogs. The animals were deprived from food over a time period of 8 h prior to administration and 2 h after administration of the test molecules. Water was supplied without limitation. On the study day, the animals received test molecule 10h […]
(§8) ethanol and 0.9% NaCl + 5% mannitol in water. Blood samples were collected from the jugular vein on the […]

[2] = biological target: T2, Abg (Agrobacterium Sp. β-glucosidase) (Agrobacterium sp., UniProt P12614); test: Enzymatic conversion of glycoside-drug conjugates at 200 μM analyzed by HPLC; assay type: biochemical; details: for Product release: 200 μM substrate, 50 mM phosphate buffer pH 6.8, Abg 0.1 U/mL; for Product release / Enzymatic hydrolysis by Abg (in words): 37 °C; for Enzymatic hydrolysis by Abg (in words): HPLC
T2 sequence (P12614 1-459): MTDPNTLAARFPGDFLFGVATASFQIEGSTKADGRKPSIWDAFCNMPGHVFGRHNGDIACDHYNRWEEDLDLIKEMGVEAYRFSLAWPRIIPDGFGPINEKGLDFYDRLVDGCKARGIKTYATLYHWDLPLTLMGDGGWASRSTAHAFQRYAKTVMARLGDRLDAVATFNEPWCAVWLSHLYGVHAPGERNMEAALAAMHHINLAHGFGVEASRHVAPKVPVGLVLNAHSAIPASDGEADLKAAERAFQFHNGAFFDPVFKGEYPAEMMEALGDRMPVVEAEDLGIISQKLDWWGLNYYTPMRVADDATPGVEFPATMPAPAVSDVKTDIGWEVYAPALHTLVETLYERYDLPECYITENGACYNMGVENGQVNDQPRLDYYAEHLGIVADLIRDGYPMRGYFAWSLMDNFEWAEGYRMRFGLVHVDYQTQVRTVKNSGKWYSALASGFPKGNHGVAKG

[3] = substrate: O=[N+]([O-])c1ccc(O[C@@H]2OC[C@@H](O)[C@H](O)[C@H]2O)cc1; test: Michaelis-Menten kinetics of enzymatic hydrolysis, release of 4-nitrophenol (absorbance at 405 nm); assay type: biochemical, Agrobacterium Sp.; details: other: 4-nitrophenyl glycosides 6a-f, phosphate buffer pH 6.8, 0.1 % BSA, 37 °C
Protocol: as §1, §2, §3, §4, §5, §6, §7, §8

[4] = substrate: C[C@H]1O[C@@H](Oc2ccc([N+](=O)[O-])cc2)[C@H](O)[C@@H](O)[C@H]1O; test: as above; assay type: biochemical, Agrobacterium Sp.; details: other: 4-nitrophenyl glycosides 6a-f, phosphate buffer pH 6.8, 0.1 % BSA, 37 °C
Protocol: as §1, §2, §3, §4, §5, §6, §7, §8

[5] = substrate: C[C@H]1O[C@@H](OCOc2ccc([N+](=O)[O-])cc2)[C@H](O)[C@@H](O)[C@H]1O; test: as above; assay type: biochemical, Agrobacterium Sp.; details: other: 4-nitrophenyloxymethyl glycosides 5a-f, phosphate buffer pH 6.8, 0.1 % BSA, 37 °C, N.A: no activity
Protocol: as §1, §2, §3, §4, §5, §6, §7, §8

[6] = substrate: O=[N+]([O-])c1ccc(O[C@@H]2O[C@H](CO)[C@H](O)[C@H](O)[C@H]2O)cc1; test: as above; assay type: biochemical, Agrobacterium Sp.; details: other: 4-nitrophenyl glycosides 6a-f, phosphate buffer pH 6.8, 0.1 % BSA, 37 °C
Protocol: as §1, §2, §3, §4, §5, §6, §7, §8

[7] = substrate: O=[N+]([O-])c1ccc(O[C@@H]2OC[C@H](O)[C@H](O)[C@H]2O)cc1; test: as above; assay type: biochemical, Agrobacterium Sp.; details: other: 4-nitrophenyl glycosides 6a-f, phosphate buffer pH 6.8, 0.1 % BSA, 37 °C
Protocol: as §1, §2, §3, §4, §5, §6, §7, §8

[8] = substrate: C[C@H]1O[C@@H](Oc2ccc([N+](=O)[O-])cc2)[C@H](O)[C@@H](O)[C@@H]1O; test: as above; assay type: biochemical, Agrobacterium Sp.; details: other: 4-nitrophenyl glycosides 6a-f, phosphate buffer pH 6.8, 0.1 % BSA, 37 °C
Protocol: as §1, §2, §3, §4, §5, §6, §7, §8

[9] = substrate: O=[N+]([O-])c1ccc(OCO[C@@H]2O[C@H](CO)[C@H](O)[C@H](O)[C@H]2O)cc1; test: as above; assay type: biochemical, Agrobacterium Sp.; details: other: 4-nitrophenyloxymethyl glycosides 5a-f, phosphate buffer pH 6.8, 0.1 % BSA, 37 °C, N.A: no activity
Protocol: as §1, §2, §3, §4, §5, §6, §7, §8

[10] = substrate: O=[N+]([O-])c1ccc(O[C@@H]2O[C@H](CO)[C@@H](O)[C@H](O)[C@H]2O)cc1; test: as above; assay type: biochemical, Agrobacterium Sp.; details: other: 4-nitrophenyl glycosides 6a-f, phosphate buffer pH 6.8, 0.1 % BSA, 37 °C
Protocol: as §1, §2, §3, §4, §5, §6, §7, §8

[11] = substrate: O=[N+]([O-])c1ccc(OCO[C@@H]2O[C@H](CO)[C@@H](O)[C@H](O)[C@H]2O)cc1; test: as above; assay type: biochemical, Agrobacterium Sp.; details: other: 4-nitrophenyloxymethyl glycosides 5a-f, phosphate buffer pH 6.8, 0.1 % BSA, 37 °C, N.A: no activity
Protocol: as §1, §2, §3, §4, §5, §6, §7, §8

[12] = substrate: C[C@H]1O[C@@H](OCOc2ccc([N+](=O)[O-])cc2)[C@H](O)[C@@H](O)[C@@H]1O; test: as above; assay type: biochemical, Agrobacterium Sp.; details: other: 4-nitrophenyloxymethyl glycosides 5a-f, phosphate buffer pH 6.8, 0.1 % BSA, 37 °C, N.A: no activity
Protocol: as §1, §2, §3, §4, §5, §6, §7, §8

[13] = 200 μM, in presence of 5 % ethanol
[14] = 0.5 h, in presence of 5 % ethanol
[15] = 1.0 h, in presence of 5 % ethanol
[16] = 2.0 h, in presence of 5 % ethanol

O=[N+]([O-])c1ccc(O[C@@H]2O[C@H](CO)[C@H](O)[C@H](O)[C@H]2O)cc1 [6 d]
V0 at high substrate concentration (in words) [1]: followed a horizontal asymptote

OC[C@H]1O[C@@H](OCOc2ccccc2)[C@H](O)[C@@H](O)[C@@H]1O [10 a]
Product release ([2]; 0.5 h): 38.6±2.3%
Product release ([2]; 1.0 h): 66.0±2.0%
Product release ([2]; 2.0 h): 90% and 89.8±1.7%
Increase in conversion compared to direct conjugate Glc−Ph ([2]; after two hours, 200 μM, Abg): twenty

C[C@H]1O[C@@H](Oc2ccc([N+](=O)[O-])cc2)[C@H](O)[C@@H](O)[C@H]1O [6 e]
V0 at high substrate concentration (in words) [1]: followed a horizontal asymptote

O=[N+]([O-])c1ccc(O[C@@H]2OC[C@@H](O)[C@H](O)[C@H]2O)cc1 [6 c, 4‐nitrophenyl xylose]
V0 at high substrate concentration (in words) [1]: over expected rate‐enhancement

OC[C@H]1O[C@@H](Oc2ccccc2)[C@H](O)[C@@H](O)[C@@H]1O [Glc−Ph, phenyl β‐D‐glucopyranoside, reference compound]
Product release ([2]; 0.5 h): 1.9±0.04%
Product release ([2]; 1.0 h): 3.0±0.30%
Product release ([2]; 2.0 h): 5.2±0.16%
Product release ([2]; 24 h): 28% and 27.7±5.5%

CC(C)c1cccc(C(C)C)c1OCO[C@@H]1O[C@H](CO)[C@@H](O)[C@H](O)[C@H]1O [10 b]
Enzymatic hydrolysis by Abg (in words) [2, 13]: not hydrolyzed
Product release [2, 14]: 1.95±0.3%
Product release [2, 15]: 1.73±0.3%
Product release [2, 16]: 1.66±0.4%

C[C@H]1O[C@@H](Oc2ccc([N+](=O)[O-])cc2)[C@H](O)[C@@H](O)[C@@H]1O [6 b]
V0 at high substrate concentration (in words) [1]: over expected rate‐enhancement

CCCCc1nc(Cl)c(CO)n1Cc1ccc(-c2ccccc2-c2nnn(CO[C@@H]3O[C@H](CO)[C@@H](O)[C@H](O)[C@H]3O)n2)cc1 [10 i]
Enzymatic hydrolysis by Abg (in words) [2, 13]: hydrolyzed slower
Product release [2, 14]: 16.7±4.8%
Product release [2, 15]: 39.3±2.2%
Product release [2, 16]: 51.3±4%
Product release ([2]; 24 h, in presence of 5 % ethanol): 74.7±10%

B1: Agrobacterium Sp. β-glucosidase (Abg, GH1 family) (Agrobacterium sp. ATCC 21400) (protein)
chain: MTDPNTLAARFPGDFLFGVATASFQIEGSTKADGRKPSIWDAFCNMPGHVFGRHNGDIACDHYNRWEEDLDLIKEMGVEAYRFSLAWPRIIPDGFGPINEKGLDFYDRLVDGCKARGIKTYATLYHWDLPLTLMGDGGWASRSTAHAFQRYAKTVMARLGDRLDAVATFNEPWCAVWLSHLYGVHAPGERNMEAALAAMHHINLAHGFGVEASRHVAPKVPVGLVLNAHSAIPASDGEADLKAAERAFQFHNGAFFDPVFKGEYPAEMMEALGDRMPVVEAEDLGIISQKLDWWGLNYYTPMRVADDATPGVEFPATMPAPAVSDVKTDIGWEVYAPALHTLVETLYERYDLPECYITENGACYNMGVENGQVNDQPRLDYYAEHLGIVADLIRDGYPMRGYFAWSLMDNFEWAEGYRMRFGLVHVDYQTQVRTVKNSGKWYSALASGFPKGNHGVAKG
Km [3]: 244 µM
kcat [3]: 0.580 s⁻¹
kcat/Km [3]: 2380 M⁻¹ s⁻¹
Km [4]: 233 µM
kcat [4]: 60.3 s⁻¹
kcat/Km [4]: 259000 M⁻¹ s⁻¹
Km [5]: 202 µM
kcat [5]: 7.18 s⁻¹
kcat/Km [5]: 35500 M⁻¹ s⁻¹
Km [6]: 3450 µM
kcat [6]: 63.6 s⁻¹
kcat/Km [6]: 18400 M⁻¹ s⁻¹
Km [7]: 175 µM
kcat [7]: 1.03 s⁻¹
kcat/Km [7]: 5890 M⁻¹ s⁻¹
Km [8]: 169 µM
kcat [8]: 29.5 s⁻¹
kcat/Km [8]: 175000 M⁻¹ s⁻¹
Km [9]: 1870 µM
kcat [9]: 3.71 s⁻¹
kcat/Km [9]: 1980 M⁻¹ s⁻¹
Km [10]: 108 µM
kcat [10]: 38.8 s⁻¹
kcat/Km [10]: 359000 M⁻¹ s⁻¹
Km [11]: 84 µM
kcat [11]: 18.4 s⁻¹
kcat/Km [11]: 219000 M⁻¹ s⁻¹
Km [12]: 239 µM
kcat [12]: 0.796 s⁻¹
kcat/Km [12]: 3330 M⁻¹ s⁻¹
